This note sets out measurements from the domain aggregation screens of Martell et al. (2025).

The series is described as follows: soluble fraction after stress (log2 fold change); higher = more stays soluble; pooled small domains, quantitative proteomics. The settings on record: stress: pH 4. A digest of the protocol: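 With high-throughput quantitative proteomics, pooled custom libraries of small protein domains were measured after pH 4 stress. Each domain's soluble amount after the stress gives a fold change taken as aggregation propensity. Higher log2 values mean more of the domain stayed soluble.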

For “HMRDSLVGLEGVVVREVDDETLAGKVQIGSMEWSARSESGRIPAGRRVVVLRAEGVHIVVKEV”, the “soluble fraction (log2)” value was -0.121.

In the case of “HMRDSWNEATKEKRYTEAYDALNSALKKTPATPHALSDALWIARELGRTNEEVQRLEWRLYALLTWIS”, the “soluble fraction (log2)” value was -0.0517.

In the case of “HMRDTDAEVTYKLNEPFKTMGSVSVEGKVLEFAGSKWFARAAEFASNTEVYPLAKNRVRLTFTFHGLTAP”, the “soluble fraction (log2)” value is 0.0243.

Turning to “HMREEFIGVLDGKVAIFHGRPERKGPLKEVTAIEVDKLPRQEQADLEKGLVIRTDKEKLQLMEGLAALLD”, the “soluble fraction (log2)” value is -0.171.

With “HMREELIALYRAIARLSEDEQELLNLFYFARRPLSEIAQLTGMTPGAAKTRLYRARRHLRREMEEDGYG”, the “soluble fraction (log2)” value was -0.653.

On to “HMREGLRHLRVRMPGGAGETLAMLYREGEVLSQSSDGAFIEVEIRVAQSVAGRLLQMPGVQLTEEVG”, for which the “soluble fraction (log2)” value is -0.871.

On to “HMREGNELLGKEGVTVSELRPAGIALIDGRRTDVVTDGEFVAVDQAVEVVEVSGNRVVVRRS”, for which the “soluble fraction (log2)” value was 0.0769.

For the sequence “HMREIDIWVAEDADSQRIDKYLSMVVEDLSRSRIASLIEGGSILVNGEVIRAKYKVKPADHITAAFEDEM”, the “soluble fraction (log2)” value was -0.938.

For the sequence “HMREIKSNEILLEVENLKNSEFFNDINFNIKKGEIVGFSGLIGAGRTELALTLFGYYKAESGKVIQ”, the “soluble fraction (log2)” value was -0.291.

Take “HMREIRIIAEEGHGRLDAFLAGREELGLSRSRIKGLIEEGQVTLNGAVPKAKQPVSPGDEIVVSVPD”: the “soluble fraction (log2)” value was -0.0246.

In the case of “HMREKMKGKILDYNFQESRGIISADDGNRYSFENSQWKGTQSPKVNQIVDFEIDGQNAKDIYLDK”, the “soluble fraction (log2)” value is 0.0691.

Regarding “HMRESLSEAERHPRYLEGEDVVRMFLLMGDLSRVEAEVIALQWNAQEADRVGLPQDAKVFRTRAR”, the “soluble fraction (log2)” value is -0.417.

As for “HMREVDKRYYKINIAGTDRIFTNVYRVGDRYSAYEADKNGKPGKFLYSLSQAEIDRAVISGSFDFK”, the “soluble fraction (log2)” value was 0.121.

As to “HMREVSPEDLALMRRIDAWHLEHPFAGARLLRDLLRPEGFQAGRRHIGTLMARMGIEALYRK”, the “soluble fraction (log2)” value was -0.255.

Consider “HMREYVGLSPFNKEKTPSFYVNDEKGQFFDFSSGKNGDLITFLQETERLTFMEAVERLAAEAGLPMPA”, for which the “soluble fraction (log2)” value is -0.617.

“HMRFANGHLIWDTIIELRNAERRINRRALADLTGLKPGVVDDHVERWIEKDQLRRAGNGELEVV”: the “soluble fraction (log2)” value is -0.24.

Regarding “HMRFMRVSQSKSKNSTSLYIIESVYTKDNKHTTRIVKKLGTVEELSKEHEDPLAWAKEVAKQMTEEAEQN”, the “soluble fraction (log2)” value is -0.508.

Regarding “HMRFNIGNVIEHYKLNTEDLAKVLFPTVKYPKQAFDRVLKGEANLDVIQLERLANHIGVLVTDLF”, the “soluble fraction (log2)” value was -0.659.

For the sequence “HMRFQGKISDWNDEKGYGFVEPNGGGTRAFVHIKSFTDLPRRPINGDIIIYETTTDEKNRVQANNISFTR”, the “soluble fraction (log2)” value is -0.163.

With “HMRFSYLNIETRKDISSLINKSEITHSSYNNNEYLYKIKSKKTDDFKDLISLIDEKDLISYSIDS”, the “soluble fraction (log2)” value turned out to be 0.258.

As to “HMRFTVSDKMDMLLKSLSAGQSMPFKSLFASASTKSEVIVTFLALLELMKLNQFVVWQDQILGEIEIERR”, the “soluble fraction (log2)” value was -0.162.

As for “HMRGDQLREHLLWTAKDVFLELGFERASMDAVAARAETSKRSLYAHFESKEKLFLAVIDLVRG”, the “soluble fraction (log2)” value was -1.65.

Turning to “HMRGESFSTLVSILQEMSARKAAQVLNGLSEGLAVEVLRALPSDVAGDILGRMDAAKAAALMEQLST”, the “soluble fraction (log2)” value was -0.9.

As for “HMRGGLATLTPRERQVLALMAEGRSNAGIAAELVVSGGAVEKHVASIFTKLGLPPDESDNRRVLAVLRHLG”, the “soluble fraction (log2)” value is -0.186.

With “HMRGHASVEIKRIVYKYKLTDQELAKITGMKASDFPIYHDHLQLILPKRYWARVLDALQNYEKEHES”, the “soluble fraction (log2)” value was ≥ 0.43.

With “HMRGINDLSLVDPQGRIRKDGEQYVVAFGRHKGKEISQIISQDPSYLNWLLSPKGIEDDATRELIRTQYS”, the “soluble fraction (log2)” value is -0.0946.

Regarding “HMRGPTIELLIQKSALYEELDDSENALKEILKAFDRDSLNSDVLNRLVNLLLNDKQIDRAENYNQLLIEK”, the “soluble fraction (log2)” value is -0.847.

“HMRGPVRLDLPVSGLSRSSGPALAKILQAVPGVHKAHVNVRSGKATLEYDPARAKVTDFVEVIRSAGFGT”: the “soluble fraction (log2)” value is -0.072.

As to “HMRGQGRILAMLKIQPEIATKDLAYLLGIRQQSLNELLKKLEKNSYVERRPSEKDRRVMVVHLTEKGKE”, the “soluble fraction (log2)” value is 0.0202.

On to “HMRGQLADLWLPREQARRAAEIVAARPVPLGSVKTWIARGKLAPRKTGTGPALYRVGALVSLLAKS”, for which the “soluble fraction (log2)” value is 0.133.

On to “HMRGVNEISYTTLISEVSGGNVRDVVISGDEITGTFNDGSRFHSFSPDDPQFIERLNDQGVIINVKPL”, for which the “soluble fraction (log2)” value was -0.904.

Turning to “HMRHDSEGYYRLIGVPPDADDAELKEAAKKRLMEAHPDHGGSEDEFVEVYRAYRTLTDPSARAEYDARP”, the “soluble fraction (log2)” value was -0.133.

As to “HMRHEDLSPAQKAAALVVAVGSENAAQVLRHLSEEEVEILAGEVARLGEVDPDVVDSVMREVYEQMMGH”, the “soluble fraction (log2)” value is -0.929.

On to “HMRHKSNRRLTAAHQIEQQIQKLLMENTMEAKELKESLNFAAKDIDTVLSWLVDKDKVRINAINQYYWT”, for which the “soluble fraction (log2)” value is -1.28.

As for “HMRHRITEKDKQFRIGQQVWHSEYGKGMVLSVDGIGSSARLTVSFVSGKLAKIIGTFVSTEP”, the “soluble fraction (log2)” value was -0.982.

For “HMRIETLESLANRLAYKAYRTGRKVELEPMNPFERRVIHTALQNSKYATTESEGEDMNRHIVIVPKEGG”, the “soluble fraction (log2)” value worked out at 0.247.

For “HMRILGIDPGSVVTGYGVIDKSGNYLRHVLHGEIKPHKGYLLSEVLMDIFSKLSAVIVETNPQSV”, the “soluble fraction (log2)” value turned out to be 0.146.

Regarding “HMRINIVKSKNAEQLYIIHSYRINGKNTSKIYKKLGTMADLLPLHNHDRDQVLAWAKEQARLATEQYDQEN”, the “soluble fraction (log2)” value amounted to 0.26.

Take “HMRIQLNFSDQLLDDVMSEALKHIDRKSQEHHIEKQMDDEFMLVYIDARLIIQVIVNIINNAIKY”: the “soluble fraction (log2)” value is -0.912.

For “HMRITEGEIVEIQEGDNRALVGVGEKLEGIISLDEIRGADGKLLFNVGDKITVMVMGHYNERPK”, the “soluble fraction (log2)” value was -0.429.

Take “HMRITRREQQVLHLLAMGMTTREIAGHINLTERTVRNRISNLRDKLGAQTASQLLAKAVAQGLIEP”: the “soluble fraction (log2)” value stood at 0.426.

As to “HMRIVSGRESMLGRTVVVADWAGERGHVVVDGERWNAVASTPLAAGRRARIVGIDGLTLSVSPDDKP”, the “soluble fraction (log2)” value was found to be 0.0452.

Take “HMRKAERHLLIKQVIDEFTIRTQEELLAKLSDYGVNATQATISRDIRDLKIVKAPDENGISRFVFF”: the “soluble fraction (log2)” value was -0.358.

“HMRKGDDRLRAQVDEYISKQGNNTFNYKQVAHAINATSPISQRAVALYLAELAFDGDLLETAPGRYKSPSR”: the “soluble fraction (log2)” value is 0.191.

On to “HMRKIKDVLRLKLHAGLSHERVAASLNISKGVVAKYTSLAAAAGLDWPTVERLSEAALERRLV”, for which the “soluble fraction (log2)” value worked out at 0.22.

Regarding “HMRKIKEVLRLKFETGFSHERIAAAVGVSKGAVTKYVQRAVAAGLGWPLAPERDDAALEALLFPH”, the “soluble fraction (log2)” value amounted to 0.0455.

With “HMRKLDQRLAGLLLGKGRLVKATHQQLADELGSVREMVSRLLKGFAEHDLVRMSREQIEIVDAAGLRKLAD”, the “soluble fraction (log2)” value is -0.611.

Take “HMRKPDLTSVRTLIRSVSKLARHLKISPNGIYRWISVNRIPGAHVVKVANYYDVEIRDLVHLTGSD”: the “soluble fraction (log2)” value is -0.578.

As for “HMRLADHVVEKLLALVQDRGLQPGQKLPAERQLAEELGVSRTSVREAIQKLTSQGVLSARRGDGTYLQS”, the “soluble fraction (log2)” value worked out at 0.402.

Regarding “HMRLARPLTPTEERVLRLLASDMSNAKIGEVLGIRLPTVKSHVSHIMQKLGVTSRAKARTAAQQLGI”, the “soluble fraction (log2)” value was ≥ 0.43.
